According to publication PMC3320765 (Biochemistry, 2012):

Target: HIRA(1–405), untagged (HIRA WD repeats) (human, UniProt P54198 1-405)
Experiment: AUC

HIRA(1–405), untagged (HIRA WD repeats), sequence (P54198 1-405): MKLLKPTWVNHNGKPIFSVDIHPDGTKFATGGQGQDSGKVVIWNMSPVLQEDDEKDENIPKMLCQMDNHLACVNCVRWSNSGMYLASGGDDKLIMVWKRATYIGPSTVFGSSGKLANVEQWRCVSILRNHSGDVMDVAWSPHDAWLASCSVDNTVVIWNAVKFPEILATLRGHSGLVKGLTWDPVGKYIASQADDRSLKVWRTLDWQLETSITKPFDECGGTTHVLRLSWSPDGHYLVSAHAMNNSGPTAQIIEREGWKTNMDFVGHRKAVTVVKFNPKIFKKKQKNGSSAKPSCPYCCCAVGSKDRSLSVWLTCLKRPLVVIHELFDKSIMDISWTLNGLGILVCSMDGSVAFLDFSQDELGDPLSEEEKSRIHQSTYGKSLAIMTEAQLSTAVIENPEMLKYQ

Row | Kd [nM] | Binder
1 | 13.3 | 6His-UBN1(41–175) (domain or fragment, human, UniProt Q9NPG3 41-175, looked up) AAAAVRITLTLFEPDHKRCPEFFYPELVKNIRGKVKGLQPGDKKKDLSDPFNDEEKERHKVEALARKFEEKYGGKKRRKDRIQDLIDMGYGYDESDSFIDNSEAYDELVPASLTTKYGGFYINSGTLQFRQASES
2 | 6.5 | 6His-UBN1(41–119) (domain or fragment, human, UniProt Q9NPG3 41-119, looked up) AAAAVRITLTLFEPDHKRCPEFFYPELVKNIRGKVKGLQPGDKKKDLSDPFNDEEKERHKVEALARKFEEKYGGKKRRK
